Laboratory results taken from patent US12281340B2, “Method of producing N-acyl-amino group-containing compound” (AJINOMOTO CO., INC., priority 2018, dated 2025).

Columns and labels:
Format in all cases: biochemical
Parameters in all cases: key: +: Detected; −: Not detected
[1] = Synthesis of N-acylamino acids from various fatty acids using purified acylamino acid synthetase, UPLC-MS detection
Procedure: 0.1 mL of a reaction solution containing 50 mM Tris-HCl, 5 mM amino acid, 5 mM sodium fatty acid (3 mM of sodium palmitate or sodium stearate), 10 mM ATP, 10 mM MgCl2, 1 mM DTT, 200 μg/mL of the purified enzyme, pH 8.0 was shaken at 25° C. for 24 hours. When sodium palmitate or sodium stearate was used, methanol at a final concentration of 10% (v/v) was contained in the reaction solution. As the amino acid, L-Asp was used in AtGH3-6, OsGH3-8, AtGH3-5, AtGH3-12, L-Ile was used in AtJAR1, L-Ala was used in AtGH3-10, SsGH3, L-Glu was used in AtGH3-17, Gly was used in CfHP, L-Lys was used in PsIAAL, and L-Cys was used in PaHP. After completion of the reaction, 0.4 mL of the reaction stop solution (1% (v/v) phosphoric acid, 75% (v/v) methanol) was added, and the mixture was filtrated through the filter followed by being subjected to the UPLC-MS analysis to detect a signal of a molecular weight corresponding to the N-acylamino acid.
The condition for the UPLC-MS analysis is as follows.
Apparatus: ACQUITY UPLC (Waters)
Column: ACQUITY UPLC BEH C18 1.7 μm 2.1×100 mm Column (Waters), mobile phase A: 0.1% formic acid; mobile phase B: acetonitrile
• Flow rate: 0.6 mL/minute • Injection amount: 2 μL • Column temperature: 40° C. • Ionization method: ESI-negative
As a result of the UPLC-MS analysis, the signal of the molecular weight corresponding to the appropriate N-acylamino acid was confirmed in the reaction solution containing the enzyme in combination with sodium fatty acid shown in Table 7 below.

[2] = Synthesis of N-caprinoyl-amino acid derivative, N-caprinoyl-D-amino acid and N-caprinoyl-peptide using purified acylamino acid synthetase, UPLC-MS detection; settings: +ATP
How it was run: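 Purified enzyme (50 μg/mL) was incubated with 5 mM sodium caprate, 5 mM amino acid derivative, D-amino acid or peptide, 10 mM ATP, 10 mM MgCl2 and 1 mM DTT in 50 mM Tris-HCl, pH 8.0, for 24 h at 25 °C. After acidic methanol stop, UPLC-MS looked for the mass of the N-caprinoyl product.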

[3] = Synthesis of N-caprinoylamino acid using purified acylamino acid synthetase, UPLC-MS detection; settings: +ATP
How it was run: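 Purified enzyme (50 μg) with 5 mM amino acid, 5 mM sodium caprate, 10 mM ATP, 10 mM MgCl2, 1 mM DTT in Tris-HCl pH 8.0, 24 h at 25° C; product detected by UPLC-MS (ESI-negative) as the N-caprinoyl amino acid mass signal.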

B1: AtGH3-17: indole-3-acetic acid-amido synthetase GH3.17 from Arabidopsis thaliana, His-tagged (protein, listed as Arabidopsis thaliana)
chain: MIPSYDPNDTEAGLKLLEDLTTNAEAIQQQVLHQILSQNSGTQYLRAFLDGEADKNQQSFKNKVPVVNYDDVKPFIQRIADGESSDIVSAQPITELLTSSGTSAGKPKLMPSTAEELERKTFFYSMLVPIMNKYVDGLDEGKGMYLLFIKPEIKTPSGLMARPVLTSYYKSQHFRNRPFNKYNVYTSPDQTILCQDSKQSMYCQLLCGLVQRSHVLRVGAVFASAFLRAVKFLEDHYKELCADIRTGTVTSWITDSSCRDSVLSILNGPNQELADEIESECAEKSWEGILRRIWPKAKYVEVIVTGSMAQYIPTLEFYSGGLPLVSTMYASSECYFGINLNPLCDPADVSYTLLPNMAYFEFLPVDDKSHEEIHFATHSNTDDDDDALKEDLIVNLVNVEVGQYYEIVITTFTGLYRYRVGDILKVTGFHNKAPQFRFVQRRNVVLSIDTDKTSEEDLLNAVTQAKLNHLQHPSSLLLTEYTSYADTSSIPGHYVLFWELKPRHSNDPPKLDDKTMEDCCSEVEDCLDYVYRRCRNRDKSIGPLEIRVVSLGTFDSLMDFCVSQGSSLNQYKTPRCVKSGGALEILDSRVIGRFFSKRVPQWEPLGLDS
modifications: His-tag
notes: indole-3-acetic acid-amido synthetase GH3.17 from Arabidopsis thaliana, His-tagged
signal of molecular weight corresponding to N-acylamino acid ([1]; substrates L-Cys and Capric acid): +
signal of molecular weight corresponding to N-acylamino acid ([1]; substrates L-Cys and Caproic acid): +
signal of molecular weight corresponding to N-acylamino acid ([1]; substrates L-Cys and Caprylic acid): +
signal of molecular weight corresponding to N-acylamino acid ([1]; substrates L-Cys and Lauric acid): +
signal of molecular weight corresponding to N-acylamino acid ([1]; substrates L-Cys and Linoleic acid): −
signal of molecular weight corresponding to N-acylamino acid ([1]; substrates L-Cys and Palmitic acid): −
signal of molecular weight corresponding to N-acylamino acid ([1]; substrates L-Cys and myristic acid): −
signal of molecular weight corresponding to N-acylamino acid ([1]; substrates L-Glu and Capric acid): +
signal of molecular weight corresponding to N-acylamino acid ([1]; substrates L-Glu and Caproic acid): +
signal of molecular weight corresponding to N-acylamino acid ([1]; substrates L-Glu and Caprylic acid): +
signal of molecular weight corresponding to N-acylamino acid ([1]; substrates L-Glu and Lauric acid): +
signal of molecular weight corresponding to N-acylamino acid ([1]; substrates L-Glu and Linoleic acid): −
signal of molecular weight corresponding to N-acylamino acid ([1]; substrates L-Glu and Palmitic acid): +
signal of molecular weight corresponding to N-acylamino acid ([1]; substrates L-Glu and myristic acid): +
signal of molecular weight corresponding to N-caprinoyl compound ([2]; substrates Carnosine and sodium caprate): −
signal of molecular weight corresponding to N-caprinoyl compound ([2]; substrates D-Ala and sodium caprate): −
signal of molecular weight corresponding to N-caprinoyl compound ([2]; substrates D-Asp and sodium caprate): +
signal of molecular weight corresponding to N-caprinoyl compound ([2]; substrates D-Cys and sodium caprate): −
signal of molecular weight corresponding to N-caprinoyl compound ([2]; substrates D-Glu and sodium caprate): +
signal of molecular weight corresponding to N-caprinoyl compound ([2]; substrates D-Ile and sodium caprate): +
signal of molecular weight corresponding to N-caprinoyl compound ([2]; substrates D-Lys and sodium caprate): −
signal of molecular weight corresponding to N-caprinoyl compound ([2]; substrates L-Asp-L-Phe and sodium caprate): −
signal of molecular weight corresponding to N-caprinoyl compound ([2]; substrates L-Gly-L-Gly and sodium caprate): +
signal of molecular weight corresponding to N-caprinoyl compound ([2]; substrates Sarcosine and sodium caprate): −
signal of molecular weight corresponding to N-caprinoyl compound ([2]; substrates Taurine and sodium caprate): +
signal of molecular weight corresponding to N-caprinoyl amino acid ([3]; substrates GABA and sodium caprate): +
signal of molecular weight corresponding to N-caprinoyl amino acid ([3]; substrates Gly and sodium caprate): +
signal of molecular weight corresponding to N-caprinoyl amino acid ([3]; substrates L-Ala and sodium caprate): +
signal of molecular weight corresponding to N-caprinoyl amino acid ([3]; substrates L-Arg and sodium caprate): −
signal of molecular weight corresponding to N-caprinoyl amino acid ([3]; substrates L-Asn and sodium caprate): +
signal of molecular weight corresponding to N-caprinoyl amino acid ([3]; substrates L-Asp and sodium caprate): +
signal of molecular weight corresponding to N-caprinoyl amino acid ([3]; substrates L-Cys and sodium caprate): +
signal of molecular weight corresponding to N-caprinoyl amino acid ([3]; substrates L-Gln and sodium caprate): +
signal of molecular weight corresponding to N-caprinoyl amino acid ([3]; substrates L-Glu and sodium caprate): +
signal of molecular weight corresponding to N-caprinoyl amino acid ([3]; substrates L-His and sodium caprate): −
signal of molecular weight corresponding to N-caprinoyl amino acid ([3]; substrates L-Ile and sodium caprate): +
signal of molecular weight corresponding to N-caprinoyl amino acid ([3]; substrates L-Leu and sodium caprate): +
signal of molecular weight corresponding to N-caprinoyl amino acid ([3]; substrates L-Lys and sodium caprate): −
signal of molecular weight corresponding to N-caprinoyl amino acid ([3]; substrates L-Met and sodium caprate): +
signal of molecular weight corresponding to N-caprinoyl amino acid ([3]; substrates L-Phe and sodium caprate): +
signal of molecular weight corresponding to N-caprinoyl amino acid ([3]; substrates L-Pro and sodium caprate): −
signal of molecular weight corresponding to N-caprinoyl amino acid ([3]; substrates L-Ser and sodium caprate): +
signal of molecular weight corresponding to N-caprinoyl amino acid ([3]; substrates L-Thr and sodium caprate): +
signal of molecular weight corresponding to N-caprinoyl amino acid ([3]; substrates L-Trp and sodium caprate): +
signal of molecular weight corresponding to N-caprinoyl amino acid ([3]; substrates L-Tyr and sodium caprate): +
signal of molecular weight corresponding to N-caprinoyl amino acid ([3]; substrates L-Val and sodium caprate): +
signal of molecular weight corresponding to N-caprinoyl amino acid ([3]; substrates β-Ala and sodium caprate): +
